Measured values as given in publication PMC4233170.

Molecular target: FLAG-tagged Rrn3 purified from infected Sf9 cells (not stated (human or mouse cDNA cloned)) (UniProt Q9NYV6)
Chain of UniProt Q9NYV6 (Q9NYV6 whole entry): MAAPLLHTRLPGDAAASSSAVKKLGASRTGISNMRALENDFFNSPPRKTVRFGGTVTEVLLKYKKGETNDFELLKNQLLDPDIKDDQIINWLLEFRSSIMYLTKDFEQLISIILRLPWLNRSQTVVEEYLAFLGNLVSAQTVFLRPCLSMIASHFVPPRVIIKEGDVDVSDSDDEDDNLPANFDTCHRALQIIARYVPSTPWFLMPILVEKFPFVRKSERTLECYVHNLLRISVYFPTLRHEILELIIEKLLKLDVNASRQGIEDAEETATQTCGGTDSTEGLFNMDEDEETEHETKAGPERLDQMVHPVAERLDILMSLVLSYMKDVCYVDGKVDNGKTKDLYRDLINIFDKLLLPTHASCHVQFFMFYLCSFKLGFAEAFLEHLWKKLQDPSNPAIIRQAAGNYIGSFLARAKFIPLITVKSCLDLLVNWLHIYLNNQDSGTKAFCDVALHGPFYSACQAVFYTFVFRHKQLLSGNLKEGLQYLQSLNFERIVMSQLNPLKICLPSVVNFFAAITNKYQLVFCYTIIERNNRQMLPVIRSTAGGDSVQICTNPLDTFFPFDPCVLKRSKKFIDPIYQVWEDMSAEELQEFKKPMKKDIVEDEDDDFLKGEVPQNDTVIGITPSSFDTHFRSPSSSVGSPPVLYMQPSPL

GGGRKKRRQRRRNKVSSSHIGCLVHGCFNASIPK [TAT-22mer: HIV TAT based cell penetrating peptide coupled to the 22mer of rpa43] showed a labelling of the 47/45S pre-rRNA precursor in N1S1 cells treated with TAT-22mer of 70 % inhibition.
